To fix the notation:
B1: A79G: bx9 SEQ ID NO:1 mutant (protein)
chain: MASSRTGAGAGGRVVVFPFPFQGHFNPVMRLARALHARGLAITVFHSGALDPADYPADYRFVPVTVEADPKLLASEDIGAIVTTLNASCDAPFRARLSALLAAEGRDSVRCVFTDVSWNAVLTASSDLGVPALGMMTASAASLRDYMAYRTLIDKGYLPVKEERKEDPVPELPPYLVKDLLRVDTSDLEEFAELLARTVTAARRASGLIFNTFPLIETDTLAEIHKALSVPVFAVAPLNKLVPTATASLHGVVQADRGCLQWLDTQQPGSVLYVSFGSMAAMDPHEFVELAWGLADSKRPFVWVVRPNLIRGFESGALPDGVEDEVRGRGIVVAWAPQEEVLAHPAVGGFLTHNGWNSTVEAISEGVPMVCCPRHGDQFGNMRYVCDVWKVGTELVGEQLERGQVKAAIDRLFGTKEGEEIKERMKEFKIAAAKGIGIGVDVDETASPRTDLTDLVDLIKSF
modifications: Zea mays
B2: A79E: bx9 SEQ ID NO:1 mutant (protein)
chain: MASSRTGAGAGGRVVVFPFPFQGHFNPVMRLARALHARGLAITVFHSGALDPADYPADYRFVPVTVEADPKLLASEDIEAIVTTLNASCDAPFRARLSALLAAEGRDSVRCVFTDVSWNAVLTASSDLGVPALGMMTASAASLRDYMAYRTLIDKGYLPVKEERKEDPVPELPPYLVKDLLRVDTSDLEEFAELLARTVTAARRASGLIFNTFPLIETDTLAEIHKALSVPVFAVAPLNKLVPTATASLHGVVQADRGCLQWLDTQQPGSVLYVSFGSMAAMDPHEFVELAWGLADSKRPFVWVVRPNLIRGFESGALPDGVEDEVRGRGIVVAWAPQEEVLAHPAVGGFLTHNGWNSTVEAISEGVPMVCCPRHGDQFGNMRYVCDVWKVGTELVGEQLERGQVKAAIDRLFGTKEGEEIKERMKEFKIAAAKGIGIGVDVDETASPRTDLTDLVDLIKSF
modifications: Zea mays
B3: V116I: bx9 SEQ ID NO:1 mutant (protein)
chain: MASSRTGAGAGGRVVVFPFPFQGHFNPVMRLARALHARGLAITVFHSGALDPADYPADYRFVPVTVEADPKLLASEDIAAIVTTLNASCDAPFRARLSALLAAEGRDSVRCVFTDISWNAVLTASSDLGVPALGMMTASAASLRDYMAYRTLIDKGYLPVKEERKEDPVPELPPYLVKDLLRVDTSDLEEFAELLARTVTAARRASGLIFNTFPLIETDTLAEIHKALSVPVFAVAPLNKLVPTATASLHGVVQADRGCLQWLDTQQPGSVLYVSFGSMAAMDPHEFVELAWGLADSKRPFVWVVRPNLIRGFESGALPDGVEDEVRGRGIVVAWAPQEEVLAHPAVGGFLTHNGWNSTVEAISEGVPMVCCPRHGDQFGNMRYVCDVWKVGTELVGEQLERGQVKAAIDRLFGTKEGEEIKERMKEFKIAAAKGIGIGVDVDETASPRTDLTDLVDLIKSF
modifications: Zea mays
B4: V116L: bx9 SEQ ID NO:1 mutant (protein)
chain: MASSRTGAGAGGRVVVFPFPFQGHFNPVMRLARALHARGLAITVFHSGALDPADYPADYRFVPVTVEADPKLLASEDIAAIVTTLNASCDAPFRARLSALLAAEGRDSVRCVFTDLSWNAVLTASSDLGVPALGMMTASAASLRDYMAYRTLIDKGYLPVKEERKEDPVPELPPYLVKDLLRVDTSDLEEFAELLARTVTAARRASGLIFNTFPLIETDTLAEIHKALSVPVFAVAPLNKLVPTATASLHGVVQADRGCLQWLDTQQPGSVLYVSFGSMAAMDPHEFVELAWGLADSKRPFVWVVRPNLIRGFESGALPDGVEDEVRGRGIVVAWAPQEEVLAHPAVGGFLTHNGWNSTVEAISEGVPMVCCPRHGDQFGNMRYVCDVWKVGTELVGEQLERGQVKAAIDRLFGTKEGEEIKERMKEFKIAAAKGIGIGVDVDETASPRTDLTDLVDLIKSF
modifications: Zea mays

The values that follow come from patent US20200270588A1, “GLUCOSYL TRANSFERASE POLYPEPTIDES AND METHODS OF USE” (Syngenta Participations AG, priority 2017, published 2020).

This test can be described thus: UDP luminescence plate assay of E. coli extracts, saturation mutants of SEQ ID NO: 1, herbicide V. The format is biochemical, Zea mays. Conditions: improvement factor relative to w/t bx9 = 1.0, rounded to nearest 0.5; extract activity basis; compound V.
Take B1: the “Preferred amino acid substitutions and (IF) based on RLU/min/ul” value is listed as 1.5. On to B2, for which the “Preferred amino acid substitutions and (IF) based on RLU/min/ul” value is 1.5. Consider B3, for which the “Preferred amino acid substitutions and (IF) based on RLU/min/ul” value is on record as “L,I(1.0)”. Next, B4: “L,I(1.0)”.
